These results are taken from patent publication US20240182536A1 (MURAL ONCOLOGY, published 2024).

For assay [1], the target named is T1, human IL-18 binding protein (IL-18BP) (human, UniProt O95998 31-194).
T1 construct: also called hu IL-18BP; hIL18BP
T1 sequence (looked up): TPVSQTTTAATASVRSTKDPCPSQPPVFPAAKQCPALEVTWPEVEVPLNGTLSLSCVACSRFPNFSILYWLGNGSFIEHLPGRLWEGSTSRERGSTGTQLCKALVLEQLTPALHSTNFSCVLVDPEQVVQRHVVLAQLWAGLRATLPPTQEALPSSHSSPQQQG
Nature of the assay: Octet BLI. On the procedure:
(§1) Octet 96red instrument was used to determine affinities of IL18 proteins to BP or receptors. 5-10 ug/ml analyte proteins were used for loading on Sartorius tips (AHC or SA). […] 120-180 s loading, 200 s association and 800 s dissociation were used for kinetics. 3-7 data points were used to calculate affinities.
Select G3/K53-substitution containing IL-18 variants and select G3/K53/N91-substitution containing TL-18 variants were tested for activity in the HEK-blue activity assay and for binding affinity to IL-18BP. As shown in the data of Table 15 and Table 16 below, each variant had similar or better activity than WT IL-18, and retained substantial activity in the presence of IL-18BP.

Assay [2] has as its target T2, IL-18 receptors on HEK-Blue IL-18 reporter cells (InvivoGen) (UniProt Q13478 19-541; O95256 20-599).
T2 sequence (looked up) 1: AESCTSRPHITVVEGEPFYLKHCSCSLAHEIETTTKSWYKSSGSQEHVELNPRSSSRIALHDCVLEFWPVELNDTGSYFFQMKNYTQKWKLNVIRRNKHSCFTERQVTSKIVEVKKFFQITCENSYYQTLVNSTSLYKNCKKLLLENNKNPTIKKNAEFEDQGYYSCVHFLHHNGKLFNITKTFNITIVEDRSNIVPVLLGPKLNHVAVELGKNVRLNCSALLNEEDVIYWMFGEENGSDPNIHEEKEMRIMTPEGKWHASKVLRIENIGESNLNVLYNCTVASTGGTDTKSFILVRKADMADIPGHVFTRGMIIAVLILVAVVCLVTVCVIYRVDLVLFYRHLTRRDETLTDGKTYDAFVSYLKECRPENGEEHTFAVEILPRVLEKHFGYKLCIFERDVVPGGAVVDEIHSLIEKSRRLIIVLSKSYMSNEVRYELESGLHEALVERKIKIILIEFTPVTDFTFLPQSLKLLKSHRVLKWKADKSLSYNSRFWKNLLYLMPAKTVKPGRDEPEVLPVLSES
T2 sequence (looked up) 2: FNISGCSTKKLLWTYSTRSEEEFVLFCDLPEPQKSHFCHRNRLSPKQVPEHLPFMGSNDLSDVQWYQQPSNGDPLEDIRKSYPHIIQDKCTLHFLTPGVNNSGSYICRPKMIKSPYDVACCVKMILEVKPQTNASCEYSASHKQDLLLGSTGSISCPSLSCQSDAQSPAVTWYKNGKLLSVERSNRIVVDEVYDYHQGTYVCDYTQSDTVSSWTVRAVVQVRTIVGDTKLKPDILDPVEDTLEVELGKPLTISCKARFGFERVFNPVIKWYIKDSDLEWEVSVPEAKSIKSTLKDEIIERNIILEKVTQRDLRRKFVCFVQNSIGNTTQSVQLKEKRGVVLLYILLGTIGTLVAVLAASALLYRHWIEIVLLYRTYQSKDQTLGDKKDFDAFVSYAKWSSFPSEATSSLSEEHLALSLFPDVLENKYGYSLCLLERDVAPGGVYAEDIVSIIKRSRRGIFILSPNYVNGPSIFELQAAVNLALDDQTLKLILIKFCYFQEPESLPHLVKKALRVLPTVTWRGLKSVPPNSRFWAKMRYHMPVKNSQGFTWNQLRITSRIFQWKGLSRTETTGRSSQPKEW
Nature of the assay: cell-based or functional assay.

The target in assay [3] is T1, human IL-18 binding protein (IL-18BP). Briefly: cell-based or functional assay.
For assay [4], the target named is T3, mouse IL-18 receptor alpha (mouse, UniProt Q61098 20-326, limits assumed).
T3 construct: also called Mouse IL18Ra; mouse IL-18R alpha
T3 sequence (looked up): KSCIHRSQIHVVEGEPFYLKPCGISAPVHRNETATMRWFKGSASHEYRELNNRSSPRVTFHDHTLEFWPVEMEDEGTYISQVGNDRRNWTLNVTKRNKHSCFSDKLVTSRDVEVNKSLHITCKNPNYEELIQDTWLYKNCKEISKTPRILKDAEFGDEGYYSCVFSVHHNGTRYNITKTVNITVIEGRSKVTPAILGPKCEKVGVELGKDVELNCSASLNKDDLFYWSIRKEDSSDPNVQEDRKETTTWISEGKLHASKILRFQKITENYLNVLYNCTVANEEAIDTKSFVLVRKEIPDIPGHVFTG
Briefly: Octet BLI, monoFc scaffold. On the procedure: as §1
(§2) Several mouse variants were next tested for binding affinity to mouse IL-18R alpha and mouse IL-18BP.

For assay [5], the target named is T4, mouse IL-18 binding protein (mouse, UniProt Q9Z0M9 29-193).
T4 construct: also called Mouse IL18BP; Mouse IL-18BP
T4 sequence (looked up): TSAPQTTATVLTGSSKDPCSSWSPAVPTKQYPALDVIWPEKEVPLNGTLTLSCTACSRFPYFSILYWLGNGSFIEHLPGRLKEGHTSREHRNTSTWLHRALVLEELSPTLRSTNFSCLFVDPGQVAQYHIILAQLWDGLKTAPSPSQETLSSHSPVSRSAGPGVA
Briefly: Octet BLI, monoFc scaffold. On the procedure: as §1, §2

B1: IL-18 variant G3F, N91E, K53S (ligand)
chain: YFFKLESKLSVIRNLNDQVLFIDQGNRPLFEDMTDSDMRDNAPRTIFIISMYSDSQPRGMAVTISVKSEKISTLSSENKIISFKEMNPPDEIKDTKSDIIFFQRSVPGHDNKMQFESSSYEGYFLASEKERDLFKLILKKEDELGDRSIMFTVQNED
notes: also called G3F/K53S/N91E
In assay [1], B1 displayed a Kd of 9.1 nM, a koff of 0.00195 s⁻¹ and a kon of 213000 M⁻¹ s⁻¹. Also, the “HEK-Blue Ec50 (pM), -IL-18BP” value in assay [2] was determined as 2.55 pM. Further, the “HEK-Blue Ec50 (pM), +IL-18BP (50 nM)” value in assay [3] is 10.7 pM.

B2: mouse IL-18 G3V/H6K/L59K on monoFc scaffold (Fc fusion, not shown: small tags and cut ends)
chain: NFVRLKSTTAVIRNINDQVLFVDKRQPVFEDMTDIDQSASEPQTRLIIYMYKDSEVRGKAVTLSVKDSKMSTLSSKNKIISFEEMDPPENIDDIQSDLIFFQKRVPGHNKMEFESSLYEGHFLASQKEDDAFKLILKKKDENGDKSVMFTLTNLHQSNGGPSVFLFPPKPKDTLMISRTPEVTCVVVDVSHEDPEVKFNWYVDGVEVHNAKTKPREEQYNSTYRVVSVLTVLHQDWLNGKEYKCKVSNKALPAPIEKTISKAKGQPREPQVYTLPPSREEMTKNQVNLTCLVKGFYPSDIAVEWESNGQPENNYKTTPPVLDSDGSFFLNSTLTVDKSRWQQGNVFSCSVMHEALHNHYTQKSLSLS
In assay [4], B2 came in with a Kd of 24.2 nM. Further, the binding result in assay [5] is listed as “no binding”.

B3: mouse IL-18 G3V/L59K on monoFc scaffold (Fc fusion, not shown: small tags and cut ends)
chain: NFVRLHSTTAVIRNINDQVLFVDKRQPVFEDMTDIDQSASEPQTRLIIYMYKDSEVRGKAVTLSVKDSKMSTLSSKNKIISFEEMDPPENIDDIQSDLIFFQKRVPGHNKMEFESSLYEGHFLASQKEDDAFKLILKKKDENGDKSVMFTLTNLHQSNGGPSVFLFPPKPKDTLMISRTPEVTCVVVDVSHEDPEVKFNWYVDGVEVHNAKTKPREEQYNSTYRVVSVLTVLHQDWLNGKEYKCKVSNKALPAPIEKTISKAKGQPREPQVYTLPPSREEMTKNQVNLTCLVKGFYPSDIAVEWESNGQPENNYKTTPPVLDSDGSFFLNSTLTVDKSRWQQGNVFSCSVMHEALHNHYTQKSLSLS
In assay [4], B3 had a Kd of 14.5 nM. For the same molecule, the binding result in assay [5] is “no binding”.

B4: mouse IL-18 G3V/L59M on monoFc scaffold (Fc fusion, not shown: small tags and cut ends)
chain: NFVRLHSTTAVIRNINDQVLFVDKRQPVFEDMTDIDQSASEPQTRLIIYMYKDSEVRGMAVTLSVKDSKMSTLSSKNKIISFEEMDPPENIDDIQSDLIFFQKRVPGHNKMEFESSLYEGHFLASQKEDDAFKLILKKKDENGDKSVMFTLTNLHQSNGGPSVFLFPPKPKDTLMISRTPEVTCVVVDVSHEDPEVKFNWYVDGVEVHNAKTKPREEQYNSTYRVVSVLTVLHQDWLNGKEYKCKVSNKALPAPIEKTISKAKGQPREPQVYTLPPSREEMTKNQVNLTCLVKGFYPSDIAVEWESNGQPENNYKTTPPVLDSDGSFFLNSTLTVDKSRWQQGNVFSCSVMHEALHNHYTQKSLSLS
Consider B4, for which the Kd was determined as 17.4 nM in assay [4] and 2.47 nM in assay [5].

B5: mouse IL-18 G3V/L59R on monoFc scaffold (Fc fusion, not shown: small tags and cut ends)
chain: NFVRLHSTTAVIRNINDQVLFVDKRQPVFEDMTDIDQSASEPQTRLIIYMYKDSEVRGRAVTLSVKDSKMSTLSSKNKIISFEEMDPPENIDDIQSDLIFFQKRVPGHNKMEFESSLYEGHFLASQKEDDAFKLILKKKDENGDKSVMFTLTNLHQSNGGPSVFLFPPKPKDTLMISRTPEVTCVVVDVSHEDPEVKFNWYVDGVEVHNAKTKPREEQYNSTYRVVSVLTVLHQDWLNGKEYKCKVSNKALPAPIEKTISKAKGQPREPQVYTLPPSREEMTKNQVNLTCLVKGFYPSDIAVEWESNGQPENNYKTTPPVLDSDGSFFLNSTLTVDKSRWQQGNVFSCSVMHEALHNHYTQKSLSLS
For B5, binding in assay [4] was put at a Kd of 51.5 nM. The binding result in assay [5] is listed as “no binding”.
